Residue numbers refer to the chain shown, from its start. In names and notes the source's numbering stands.
T1: biotinylated murine CCL20, O89093
T1 chain: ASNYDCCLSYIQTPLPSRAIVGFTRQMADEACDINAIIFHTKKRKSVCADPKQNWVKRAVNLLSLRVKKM

T2: murine CCL20 (mouse, UniProt O89093 28-97)
T2 chain: T1 chain

B1: AB1-C1-16 (H:S28R, L:G35Y) (antibody, V domains shown)
VH: QVQLQQSGAELAKPGSSVKISCKAYGRSFTTNSIHWIKQTTGQALEWTGYIAPGSGGARYNEKFKGKATLTVDKSSGTAYMQLSSLTPVDTAVYYCALNIGTNPFTYWGQGTLVTVSS
VL: DIVMTQGALPNPVPSGESVSITCRSSKSLLYSDYKTYLNWYLQRPGQSPQLLIYWMSTRASGVSDRFSGSGSGTDFTLKISGVEAEDVGVYYCQQGLEFPRTFGSGTKLEIK
notes: IMGT numbering; IgG1, as m1; also called clone 1–16; combination clone; source: HEK293FT, transiently transfected, purified (Protein A)
B2: AB1-C16 (L:G35Y) (antibody, V domains shown)
VH: B1 VH with R27S
VL: B1 VL
notes: IMGT numbering; IgG1, as m1; also called clone 16; VL clone 16; source: HEK293FT, transiently transfected, purified (Protein A)
B3: AB1-C1 (H:S28R) (antibody, V domains shown)
VH: B1 VH
VL: B1 VL with Y34G
B4: AB1 alanine variant 7 (H:S28A, H:N113A, L:K36A) (antibody, V domains shown)
VH: B1 VH with R27A, N103A
VL: B1 VL with Y34G, K35A
notes: IMGT numbering; IgG1, as m1; source: HEK293FT, transiently transfected, purified (Protein A)
B5: AB1-C16 Fab fragment (L:G35Y) (Fab, V domains shown)
VH: B1 VH with R27S
VL: B1 VL
notes: IMGT numbering; Fab of m43; source: papain cleavage of the purified antibody; purified by anion and cation exchange chromatography
B6: AB1 Fab fragment (Fab, V domains shown)
VH: B1 VH with R27S
VL: B1 VL with Y34G
notes: Fab of m1; also called parental AB1 (Fab); source: papain cleavage of the purified antibody; purified by anion and cation exchange chromatography
B7: AB1-C1 Fab fragment (H:S28R) (Fab, V domains shown)
VH: B1 VH
VL: B1 VL with Y34G
notes: IMGT numbering; Fab of m28; also called Clone AB1-C1; source: papain cleavage of the purified antibody; purified by anion and cation exchange chromatography
B8: AB1-C1-16 Fab fragment (H:S28R, L:G35Y) (Fab, V domains shown)
VH: B1 VH
VL: B1 VL
notes: IMGT numbering; Fab of m48; also called combination clone AB1-C1-16; source: papain cleavage of the purified antibody; purified by anion and cation exchange chromatography
B9: AB1 anti-muCCL20 monoclonal antibody (antibody, V domains shown)
VH: B1 VH with R27S
VL: B1 VL with Y34G
notes: VH of AB1; VL of AB1; IgG1 (in-house mammalian expression vector); hybridoma derived; also called WT AB1; parental AB1; source: HEK293FT, transiently transfected, purified from supernatant (Protein A)
B10: AB1 alanine variant 11 (H:Y55A) (antibody, V domains shown)
VH: B1 VH with R27S, Y50A
VL: B1 VL with Y34G
notes: as for B4
B11: AB1 alanine variant 6 (H:S29A, L:Y31A, L:Y38A) (antibody, V domains shown)
VH: B1 VH with R27S, S28A
VL: B1 VL with Y31A, Y34G, Y37A
notes: as for B4
B12: AB1 alanine variant 8 (H:T110A, L:Y31A, L:D34A) (antibody, V domains shown)
VH: B1 VH with R27S, T102A
VL: B1 VL with Y31A, D33A, Y34G
notes: as for B4
B13: AB1 alanine variant 12 (H:N107A) (antibody, V domains shown)
VH: B1 VH with R27S, N99A
VL: B1 VL with Y34G
notes: as for B4
B14: AB1 alanine variant 15 (L:D34A) (antibody, V domains shown)
VH: B1 VH with R27S
VL: B1 VL with D33A, Y34G
notes: as for B4
B15: AB1 alanine variant 9 (H:T35A, H:N107A, L:R116A) (antibody, V domains shown)
VH: B1 VH with R27S, T30A, N99A
VL: B1 VL with Y34G, R101A
notes: as for B4
B16: AB1 alanine variant 17 (L:Y38A) (antibody, V domains shown)
VH: B1 VH with R27S
VL: B1 VL with Y34G, Y37A
notes: as for B4

target: murine CCL20 (mouse) (UniProt O89093); experiment: not given; settings: not given

Q: Which fold decrease in antibody IC50 against parental AB1, CCR6 CHO-K1 β-arrestin assay with 4 nM muCCL20; blocks muCCL20 with muCCR6 does the source give for B1 here?
A: 4 fold

Q: With B2 as the binder, how does the fold decrease in antibody IC50 against parental AB1, CCR6 CHO-K1 β-arrestin assay with 4 nM muCCL20; blocks muCCL20 with muCCR6 read?
A: 2 fold

Q: B3 was tested. Which fold decrease in antibody IC50 against parental AB1, CCR6 CHO-K1 β-arrestin assay with 4 nM muCCL20; blocks muCCL20 with muCCR6 did it give?
A: 4 fold

Target: T1, biotinylated murine CCL20, O89093
Experiment: capture ELISA
Settings: chain shown with the change; highest mAb concentration, log[nM] about 1.8; plate-coated anti-Fc antibody to capture the antibody variants; parent: est. 1.8; read off a plot

Q: For B4, which response is on record?
A: 0.86 A450

Target: T2, murine CCL20
Experiment: SPR
Settings: not given

Q: Which koff does the source give for B5 here?
A: 0.007 s⁻¹

Q: Which koff does the source give for B6 here?
A: 0.0077 s⁻¹

Q: With B7 as the binder, how does the koff read?
A: 0.0029 s⁻¹

Q: B8 was tested. Which koff did it give?
A: 0.0042 s⁻¹

Target: T2, murine CCL20
Experiment: SPR
Settings: not given
Remark: another data set of the same source

Q: Which Kd does the source give for B5 here?
A: 8.4 nM

Q: For B6, which Kd is on record?
A: 9.1 nM

Q: For B7, which Kd is on record?
A: 2.3 nM

Q: How did the Kd turn out when B8 was run?
A: 2.8 nM

target: T3, murine CCL20 (Mus musculus, UniProt O89093); experiment: SPR; Biacore T200; muCCL20 immobilised on a CM4 chip (~30 RU); Fab 0.02-50 nM at 100 uL/min; HBS-EP pH 7.4; 1:1 model; apparent KD = koff/kon; settings: both partners purified
T3 construct: CCL20, mouse; recombinant; also called muCCL20; mouse CCL20; source: in-house, standard mammalian cell expression; purified

Q: Does B5 bind?
A: binds

Q: Does B6 bind?
A: binds

Q: How did the “fold improvement in KD against parental AB1” value turn out when B7 was run?
A: 4 fold

Q: Does B8 bind?
A: binds

target: T3, murine CCL20; experiment: ELISA; mouse or human CCL20 coated at 2 ug/mL on Maxisorp plates overnight at 4°C; antibody dilutions starting at 60 nM; detected with anti-Fc-HRP; settings: both partners purified

Q: Does B9 bind?
A: binds

target: T4, biotinylated murine CCL20 (Mus musculus, UniProt O89093, biotin); experiment: ELISA; capture ELISA: plate-coated anti-mouse Fc antibody (1 ug/mL) captures the antibody variant (5 ug/mL); biotinylated muCCL20 titrated from 0 to 600 nM, 1 h; settings: both partners purified
T4 construct: CCL20, mouse; recombinant; m2 with biotin; also called biotinylated muCCL20; muCCL20 antigen; source: in-house, standard mammalian cell expression; biotinylated

Q: Does B4 bind?
A: binds

Q: Does B1 bind?
A: binds

Q: Does B10 bind?
A: no binding (tested: 600 nM)

Q: Does B2 bind?
A: binds

Q: Does B9 bind?
A: binds

Q: Does B11 bind?
A: no binding (tested: 600 nM)

Q: Does B12 bind?
A: no binding (tested: 600 nM)

Q: Does B13 bind?
A: no binding (tested: 600 nM)

Q: Does B14 bind?
A: no binding (tested: 600 nM)

Q: Does B15 bind?
A: no binding (tested: 600 nM)

Q: Does B16 bind?
A: no binding (tested: 600 nM)
